Data from US20140248360A1, “NANOPARTICLE TUMOUR VACCINES” (MIDATECH LIMITED, priority 2011, published 2014).
Blank lines part the entries; values can stand above or below the substance they belong to.

What was measured:
[1] = Aggregation and solubility of nanoparticle preparations; type: physicochemical; conditions: for NP formed in repeat production: 75% methanol not 95% in the synthesis stage
Procedure: Samples were bench spun the supernatant removed and the dark pellet dissolved in 2 ml water, and then transferred to a 10 kDa vivaspin for a total of 4 times 2 ml water washes each of 8 min at 5 Krpm. Nanoparticles (NPs) were removed from the vivaspins and made up to 500 μl with water, they were then subjected to 15 Krpm bench spin to remove any large aggregates.
NP's 2-5 were produced by a variation using 75% methanol not 95% in the synthesis stage.

[2] = target: SIINFEKL:K^b complex (SIINFEKL complexed to H-2K^b) on LK^b cells (murine) (UniProt P01901); assay: cell-based or functional assay
UniProt P01901, sequence (P01901 22-369 limits assumed, one chain of several): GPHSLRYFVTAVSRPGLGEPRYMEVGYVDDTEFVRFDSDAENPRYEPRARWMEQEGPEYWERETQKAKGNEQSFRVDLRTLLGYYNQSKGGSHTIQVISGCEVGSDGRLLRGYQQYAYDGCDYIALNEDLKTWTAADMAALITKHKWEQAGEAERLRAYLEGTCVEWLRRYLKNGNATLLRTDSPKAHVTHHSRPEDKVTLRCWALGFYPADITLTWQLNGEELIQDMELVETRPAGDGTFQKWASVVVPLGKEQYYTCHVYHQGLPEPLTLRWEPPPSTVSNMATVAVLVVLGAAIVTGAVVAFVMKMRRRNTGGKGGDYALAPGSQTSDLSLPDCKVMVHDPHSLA

Substance: NP 2: gold nanoparticle, GlcC2 corona, peptide ligand SIINFEKL-N-(CH2)2-SH
NP formed in repeat production [1]: ‘normal’ NP

β-galactosidase measured using a luminescent substrate (B3Z activation); limit of detection as SIINFEKL pulse concentration [2]: 5 ng/mL
Substance: T cell receptor of the SIINFEKL:Kb-specific T hybridoma B3Z (TCR)

Substance: NP 3: gold nanoparticle, GlcC2 corona, peptide ligand FLSIINFEKL-N-(CH2)2-SH
solubility of NP aggregates in NaOH ([1]; 300 mM NaOH): total NP solubilisation
NP formed in repeat production [1]: formed aggregates
aggregation of NP after synthesis ([1]; first production, after 15 Krpm bench spin): large near complete aggregation
solubility of NP aggregates ([1]; water, 10% acetic acid, PBS, DMSO or DMF): not soluble
